A short description of this data set: label from the status in PepcDB records.
As to “MTLPIPSSPPRIKINLPCFQYVGTEMSVDIITSIWFMTLTEFATFMPKRDMCPKPASIPPAAPTVENTVPTTIPQINRRSSITSSSSTTVDNFVIKIYQVYRRMQTLTLEISTTKRSVLNKLKRASLTFQQFKNLLYLCLLEYYKNTKDVKPFLSVSFLEKFVKGKENLPFENEKIKSYREKLKELWEKEIGSDTVKALARQVSKEVKSVLEKWKKGERAFLPRPRKLKKVHKFTVPTNPNMLVDKRKLKRRRENSIVVRLGISFGAVKVKIPQGINIRDVKITWYEDTEVIFRISYEVPKAQKELLKEKWLSIDLGVRNLVSCISNDENLRSFIVDGNPLKSFNQWVNKLSAKLRSEGKERLERKLWRYRKKRIKGFFHQVANLIVRVCLERGIGRVIIPNSLNEEYQKDSEKGARFNQEFRFIPLGELVKMIEYKCELCGIEVVKEDESWTSKVSSVSGNIEVLKEEIPEGEVKKLKFEGRRIKRGLFRDRRLKKVFNADLNGALNLAIKALGKKVREEFLSLRNWLDKLSRPVKVNLFRYPASLPVLWEIAGSKSCSPKGDSEGHFAGSVSDLITFAHF”, the protein production result is on record as “failed”. For the sequence “MQKVVLATGNVGKVRELASLLSDFGLDIVAQTDLGVDSAEETGLTFIENAILKARHAAKVTALPAIADDSGLAVDVLGGAPGIYSARYSGEDATDQKNLQKLLETMKDVPDDQRQARFHCVLVYLRHAEDPTPLVCHGSWPGVITREPAGTGGFGYDPIFFVPSEGKTAAELTREEKSAISHRGQALKLLLDALRNG”, the protein production result is “not failed”. The same measure for “MCSYARATDANGESFIYCRTWQGQFFRFKLEDRVYDYVTTFAKSDACLATDPDDPTKIYCALNEYNKITCIDLTKNPEDSGFETDVCGIQGPGAYQDGHVSVARLNNPQQILSMHDPETGEKVIYICDANNNCVRMYNMETKLMSTVAGIGGKSGYAAGNPTVSRMNRPYGICITPENDIYVADAGNKVIMKLAFMLEHHHHHH”: “failed”. “MTNTIKKISTAQTYLNNNEIEKIIEVSKSLDLMASFYEADVFIDVLSKFDDEAIVVAHGRPKEKSMYCENVIGKKALIENEPGVIKCLKTGERVRDIKALTQEYKLVKQNIQPITLDDKVLAVLIVEKDISSEVKNEFNASEDEENKNLHQFIKLIGNNDFLVDNLNSAILIFDKNGKLKIKNRIATEIYKNLGFGYDIQDMHYNDLDIETNTFENILMDENYDETNEVSIGNMFFKIKTIYIKDDEFKVCKIVQDISDLKRKEEELVLKTVAIREAHHRVKNNLHTVISIIKKQSRLSQNDEVKQCLDNIINRVFAILSTHYLLSKEVDNNISIREGINLLVSNIQGGYLFSKDIDIRITGEDFKISGEKATAILLVINEILQNCYDHAFSDREHGTIQILINKDNDYRNIAIIDDGIGFDSNNINKNSLGTYIIDSYITQMLKGNIERKSSENGTEVLITIPTQINI”: the protein production entry was “failed”. “IPSDGLTIPYGSGPKPIFRAQVGKKVYQSLINQATESVYITTPYLIIDYDLTETIKNAAMRGVDVRIITPYIPDKKFIQLVTRGAYPDLLSAGVRIYEYSPGFIHSKQMLVDEDFAVVGTINLDYRSLVHHYENAVLLYKTPSIREIARDFRNIFADSQEVYPHSIKTSWYQKLVKEIAQLFAPIL”: the protein production entry was “failed”.

For the sequence “MLNMQRLQTVLLQCAGWLLYMSLLMLIALALPADIFDSQSKHFIFLVGAVGIWRYSMGATHFIRGMIFLYGVYPYLRRKVQKMGNATDPSHVYLMVTSFRIEALTTAQVYSSVIREAINCGFPTTVVCSLVEMSDELLVKSLWAKYNPPAHVKLDIVRIAGTGKRDGLAYGFRAISRMLPDENAVVAVIDGDTVLADGVVRKTVPWFKLFPNVGGLTTNEFCEVRGGYIMSEWHKLRFAQRHINMCSMALSKRVLTMTGRMSMFRASVVTNPEFIADVESDSLMHWRLGRFKFLTGDDKSSWFSLMRLGYDTFYVPDAAINTVEHPPEKSFLKASRKLMYRWYGNNLRQNSRALGLGLRRLGLFTSIVLFDQRVSMWTSLLGLTVAVIASLKFGMAFLLVYLLWIGITRLILTIMLLCSGHNVGPAYPLILYYNQIIGALMKIYVFFRLDKQSWTRQPTALKRDLASFQQWFNTWSSRTMTFSAASIFVAVLFMVV”, the protein production entry is “failed”. “MTVGQVLRSYPQTVQTFLELGMHCLGCPSSTMESIEGAALTHGKKPDELVEKLNKVIAANLEHHHHHH”: the protein production result is “failed”. The same measure for “MFGFLRSTTSNDNTLSDTQVNESYRYWRLHIMIGMYIGYAGFYFTRKTFNYAAPAMITDLGLDKGDLGLIGTLFYISYGLSKFLSGTISDRSNPRYFMGLGLIATGLINIAFGFSSSLAAFISLWVLNAWFQGWGWPSCSKLLTTWYSRSERGFRWAIWNTAHNIGGALIPILVGYLTLHYSWREGFILPGIIGVAIGLIVCWRLRDKPTTMGLPSVGKWRNDPLELAQENHGQGLSYREILKTYVFSNKYIWLLAFSYVLVYIVRTAVNDWGNLYLTEEHNYSLINANAALSLFEIGGFVGSLVAGWGSDKLFGGNRGPMNILFAIGIFLSVSALWLMPLTNFVFQAAGLFSVGFFVFGPQMLIGMAAAECSHKDSAGAATGFVGLFAYMGAALSGYPLAVILETYGWTGFFITISTCAAVIGLLLLPFLQAQSPQKPIETRVRL”: “failed”. The entry for “MKKNDLSALQENCFCFCDEEISREAPFQVPIDFPEGFKVDTAEASAAVTWSTDNLSCISEPCLIQTGPEPEDIGVRYAVRVQGTITLLVSVSPVRNQYGQGDGAVSVIHTEEIDQVVYYAAQSGRCPDFSQITVEDLLIVPPFYGSPLTVAGTLVLPPSPDPQSYVFTANTGDSTVSVIDADLNTVVKTIPFSDVPTNLGVTFDKAFTYVLHGNTNLVSVIDNKTLTIINTITVGGGPRKIEFDPTDEFAYVMAAGSIYVINTASQSVIDVIPIPGALDFALDPNGQYVYTANGSSWSVDKYDVNTGQLVESIIDTFEFPSLITTPYAGNFAYVLNGELWPKGVTEISLSPLSRGGDFSRLFETLRTIVFSLDSTRAYFLEPYSEPFLINNLYVVNTARQRIIANVSLPGAFDLAVTPDKQYIYAAQPNDNAVTVYRTSDYTAVTVIPVGAGPSAIAMLEHHHHHH” is “failed”.

As for “MCTPFIFVVYAKSKYLCVLISNEMGKNKLEKFADMASYPHVFEYPYSAVDNVPFDMKGKWHQEFFGNDHPIVLELGCGRGEYTVGLGRMFPDKNFIAVDIKGSRMWTGATESLQAGMKNVAFLRTNIEIIERFFAAGEVSEIWLTFSDPQMKKATKRLTSTYFMERYRKFLKPDGIIHLKTDSNFMFTYTKYMIEANQLPVEFITEDLYHSDLVDDILSIKTYYEQQWLDRGLNIKYIKFRLPLEHHHHHH”, the protein production result was “failed”.

As for “MAKNTFTPELLEKHFTKNEWKKGARIFQANGVKTCALDGEVIRGVVFSERSRESSYLTRLVFDGKFGDIASYCDCYVGRDCKHGSALAQCYIHEHFDRNSIATSETIIDKWLNRFQAQPTRYQPNTQQKSLLYFLKPNPYNEDDFLTLGIKSARPKNSGGWNSSIGSEYSASSLINSAYANDEDVAVLTELMRTNQYGDTIKYFDLFERIIKTNRSFWHTTYDLSEPVTLSEPLEAEWQWLALGNSLHTLKLVLMQPSESIRIIKAQPLCFYDEEKNCFGKINTNTQCDFEAGLLNSPIFEEDKLPWIMSKLSMSLGDAVKRLPKPKTKYSQELTQPDVYLHFTTPVASNRQTGYVQVNFSYQGNLVNPHDENVTITPSNVTKLSIDSDAQSDADSNIESGAYSNIEDEVERENVSPREIKIYRDLAFEQTVIDKLTTLKFNPQPKPKRYTYTSQDDLNKSKTPEFAMLMQGSVLWQRFLHQELSPLEDLGWHITFADDFYYKALSTDSVFDAEVMETDDHDFFSLGLNLTIDGKKMPAFPILLSAIEQLPRSALLDREKEDLISPDSPIYVDLDNGGFVALRYQSVQPILKQFIELFMPNALSHDGTIELSRFQGHQTLSMLDDQGMIAKGTSKLRALADKLKDFQQVTTIPVPEGLNATLRTYQHQGLNWLQFLREYQLNGILADDMGLGKTIQTLAHLLIEKQQGRLTKPILIVAPTSVIFNWANEIDKFTPQLSYQVLHGNKRHEQFGCLEGVENGENQVDIIITSYALITKDLAHYTDRKFYYLVLDEAHYIKNTKTKLYQAFLTLKAQHKLCLTGTPMENHLGEFWAQFNFLLPGFLGGQRQFTKLFRTPIEKHGELERKQLLNQRIKPFILRRTKDKIATELPPKTEIIQTLRIEGKQAELYESVRLAMDSRLKDIIADKGLKRSQIEVLDALLKLRQVCNHPKLLKLEGAKKVNQSAKLDYLMETLPEQIDEGRKILIFSQFTSMLSLIEDELIDAGIGYVKLTGSTTKRQEVVDKFQRGEVPVFLISLRAGGVGLNLTAADTVIHFDPWWNPAVENQATDRAYRIGQNKPVFVYKLIIENSIEEKIQKIQQNKAELAKALLSEEVSDNKLSLTDDILDSLLTPLS”, the protein production entry is on record as “failed”.

The record behind these values is a protein production outcome set (Wang et al. 2014).
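Also: failed if final PepcDB status was selected cloned or expressed and not failed if soluble or beyond.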
